Fewer inactive variants are shown than the library holds.
B1: TPR 5TU (parent)
chain: GGAUCUUCUCGAUCUAACAAAAAAGACAAAUCUGCCACAAAGCUUGAGAGCAUCUUCGGAUGCAGAGGCGGCAGCCUUCGGUGGCGCGAUAGCGCCAACGUUCUCAACUAUGACACGCAAAACGCGUGCUCCGUUGAAUGGAGUUUAUCAUG

Variants of: B1
Assay: polymerase ribozyme fitness, log enrichment relative to wild type (log ratio); higher = more active; in vitro selection for triplet polymerase activity
Procedure, shortened: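 The heterodimeric triplet polymerase ribozyme's subunits were each mutagenized into PCR-built libraries and transcribed. Every library was selected once, in triplicate, by annealing with a biotinylated primer, the partner subunit and triplets, incubating frozen at −7 °C, gel-excising extended constructs, capturing on streptavidin beads and running RT-PCR. Input and output libraries were Illumina-sequenced, with genotypes kept only at ≥10 input reads and ≥1 read per output. Fitness, from inverse-variance-weighted replicate averages, is the base-2 logarithm of genotype enrichment over wild-type enrichment.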

| Variant | polymerase ribozyme fitness (log ratio) |
| --- | --- |
| GGAUCUUCUCGAUCUAACAAAAAAGACAAAUCUGCCACAAAGCUUGAGAGCAUCUUCGGAUGCAGAGGCGGCAGCCUUCGGUGGCGCGAUAGCGCCAGCGUUAUCAACUAUGACACGCAAAACGCGUGCUCCGUUGAAUGGAGUUUAUCAUG [A98G C103A] | -0.961 |
| GGAUCUUCUCGAUCUAACAAAAAAGACAAAUCUGCCACAAAGCUUGAGAGCAUCUUCGGAUGCAGAGGCGGCAGCCUUCGGUGGCGCGAUAGCGCCUACGUCCUCAACUAUGACACGCAAAACGCGUGCUCCGUUGACUGGAGUUUAUCAUG [A97U U102C A138C] | ≤ -4.2 |
| GGAUCUUCUCGAUCUAACAAAAAAGACAAAUCUGCCACAAAGCUUGAGAGCAUCUUCGGAUGCAGAGGCGGCAGCCUUCGGUGGCGCGAUAGCGCCUACGUUCUCAACUAUGACACGGAAGACGCGUGCUCCGUUGAAUGGAGUUUAUCAUG [A97U C118G A121G] | -1.56 |
| GGAUCUUCUCGAUCUAACAAAAAAGACAAAUCUGCCACAAAGCUUGAGAGCAUCUUCGGAUGCAGAGGCGGCAGCCUUCGGUGGCGCGAUAGCGCCAGCGUUCUCAACUAUGACACGCUAAACGAGUGCUCCGUUGAAUGGAGUUUAUCAGG [A98G A119U C125A U151G] | ≤ -4.2 |
| GGAUCUUCUCGAUCUAACAAAAAAGACAAAUCUGCCACAAAGCUUGAGAGCAUCUUCGGAUGCAGAGGCGGCAGCCUUCGGUGGCGCGAUAGCGCCAAGGUUCUCAACUAUGACACGCCAAACGCGUGCUCCGUUGAAUGGAGUUUAUCAUG [C99G A119C] | -0.2 |
| GGAUCUUCUCGAUCUAACAAAAAAGACAAAUCUGCCACAAAGCUUGAGAGCAUCUUCGGAUGCAGAGGCGGCAGCCUUCGGUGGCGCGAUAGCGCCUACGUUCUCAACUAUGACACGCAAAACGCGUGCUCCGUUGAAUGGAGAUUAUCAUG [A97U U144A] | -1.56 |
| GGAUCUUCUCGAUCUAACAAAAAAGACAAAUCUGCCACAAAGCUUGAGAGCAUCUUCGGAUGCAGAGGCGGCAGCCUUCGGUGGCGCGAUAGCGCCAAGGUUCUCAACUAUGACACGCAAAACGCGUGCUCCGUUGAAUGGAGUUUAUCAUA [C99G G152A] | -2.39 |
| GGAUCUUCUCGAUCUAACAAAAAAGACAAAUCUGCCACAAAGCUUGAGAGCAUCUUCGGAUGCAGAGGCGGCAGCCUUCGGUGGCGCGAUAGCGCCUACGUUCUCAACUAUGACACGCGAAACGCGUGCCCCGUUGAAUGGAGUUUAUCAUG [A97U A119G U130C] | 0.572 |
| GGAUCUUCUCGAUCUAACAAAAAAGACAAAUCUGCCACAAAGCUUGAGAGCAUCUUCGGAUGCAGAGGCGGCAGCCUUCGGUGGCGCGAUAGCGCCAACCUUCUCAACUAUGACACGCAAAACGCGUGCUCCGUUGGAUGCAGUUUAACAUG [G100C A137G G141C U148A] | ≤ -4.2 |
| GGAUCUUCUCGAUCUAACAAAAAAGACAAAUCUGCCACAAAGCUUGAGAGCAUCUUCGGAUGCAGAGGCGGCAGCCUUCGGUGGCGCGAUAGCGCCUACGUUCUCAACUAUGACACGCAAAACGCGUGCUCCGUUGAAUGGAGUUUAUCGUG [A97U A150G] | -1.61 |
| GGAUCUUCUCGAUCUAACAAAAAAGACAAAUCUGCCACAAAGCUUGAGAGCAUCUUCGGAUGCAGAGGCGGCAGCCUUCGGUGGCGCGAUAGCGCCAAUGUUCUCAACUAUGACACGCAAAACGCGUGCUCCGUUGAAUGGAGUUUAUCAUG [C99U] | -0.26 |
| GGAUCUUCUCGAUCUAACAAAAAAGACAAAUCUGCCACAAAGCUUGAGAGCAUCUUCGGAUGCAGAGGCGGCAGCCUUCGGUGGCGCGAUAGCGCCAAGGUUCUCAACUAUGACACGCAAAACGCGUGCUCCGUUGAAUGGAGUUUAUCAUG [C99G] | -0.744 |
| GGAUCUUCUCGAUCUAACAAAAAAGACAAAUCUGCCACAAAGCUUGAGAGCAUCUUCGGAUGCAGAGGCGGCAGCCUUCGGUGGCGCGAUAGCGCCAAAGUUCUCAACUAUGACACGCAAAACGCGUGCUCCGUUGAAUGGAGUUUAUCAUG [C99A] | -0.806 |
| GGAUCUUCUCGAUCUAACAAAAAAGACAAAUCUGCCACAAAGCUUGAGAGCAUCUUCGGAUGCAGAGGCGGCAGCCUUCGGUGGCGCGAUAGCGCCUACGUUCUCAACUAUGACACGCAAAACGCGUGCUCCGUUGUAUGGAGUUUAUCAUG [A97U A137U] | ≤ -4.2 |
| GGAUCUUCUCGAUCUAACAAAAAAGACAAAUCUGCCACAAAGCUUGAGAGCAUCUUCGGAUGCAGAGGCGGCAGCCUUCGGUGGCGCGAUAGCGCCUACGUUCUCAACUAUGACACGCAAAAUGCGUGCUCCGUUGAAUGGAGUUUAUCAUG [A97U C123U] | 0.268 |
| GGAUCUUCUCGAUCUAACAAAAAAGACAAAUCUGCCACAAAGCUUGAGAGCAUCUUCGGAUGCAGAGGCGGCAGCCUUCGGUGGCGCGAUAGCGCCAGCGUUCUCAACUAUGACACGCAAAACGCGUGCUCCGUUGAAUGGAGUUUAUCAUG [A98G] | -0.208 |
| GGAUCUUCUCGAUCUAACAAAAAAGACAAAUCUGCCACAAAGCUUGAGAGCAUCUUCGGAUGCAGAGGCGGCAGCCUUCGGUGGCGCGAUAGCGCCAUCGUUCUCAACUAUGACACGCAAAACGCGUGCUCCGUUGAAUGGAGUUUAUCAUG [A98U] | -0.453 |
| GGAUCUUCUCGAUCUAACAAAAAAGACAAAUCUGCCACAAAGCUUGAGAGCAUCUUCGGAUGCAGAGGCGGCAGCCUUCGGUGGCGCGAUAGCGCCAUCGUUCUCAACUAUGACCCGCAAAACGCGUGCUCCGUUGAAUGGAAUUUAUCAUG [A98U A115C G143A] | -3.88 |
| GGAUCUUCUCGAUCUAACAAAAAAGACAAAUCUGCCACAAAGCUUGAGAGCAUCUUCGGAUGCAGAGGCGGCAGCCUUCGGUGGCGCGAUAGCGCCAACAUUCUCAACUAUGACACGCAAAACGCGUGCUCCGUUGAAUGGAGUUCAUCAUG [G100A U146C] | -4.17 |

| Variant | polymerase ribozyme fitness (log ratio) |
| --- | --- |
| GGAUCUUCUCGAUCUAACAAAAAAGACAAAUCUGCCACAAAGCUUGAGAGCAUCUUCGGAUGCAGAGGCGGCAGCCUUCGGUGGCGCGAUAGCGCCAUCGUUCUCAACUAUGACACGCAAAACGCGUGCUCCGUUGAAUGGAGUUGAUCUUG [A98U U146G A150U] | -0.247 |
| GGAUCUUCUCGAUCUAACAAAAAAGACAAAUCUGCCACAAAGCUUGAGAGCAUCUUCGGAUGCAGAGGCGGCAGCCUUCGGUGGCGCGAUAGCGCCAUCGUUCUCAACUAUGACACGCAAAACGCGUGCUCCGUUGAAUGAAGUUUAUCAUG [A98U G141A] | -0.0351 |
| GGAUCUUCUCGAUCUAACAAAAAAGACAAAUCUGCCACAAAGCUUGAGAGCAUCUUCGGAUGCAGAGGCGGCAGCCUUCGGUGGCGCGAUAGCGCCAUCGUUCUCAACUAUGACACGCAAAACGCGUGCUCCGUUGAAUGCAGUUUAUCAUG [A98U G141C] | -0.0983 |
| GGAUCUUCUCGAUCUAACAAAAAAGACAAAUCUGCCACAAAGCUUGAGAGCAUCUUCGGAUGCAGAGGCGGCAGCCUUCGGUGGCGCGAUAGCGCCAUCGUUCUCAACUAUGACACGCAAAACGCGUGCUCCGUAGAAUGGAGUUUAUCAUG [A98U U135A] | -2.55 |
| GGAUCUUCUCGAUCUAACAAAAAAGACAAAUCUGCCACAAAGCUUGAGAGCAUCUUCGGAUGCAGAGGCGGCAGCCUUCGGUGGCGCGAUAGCGCCAAGGUUCUCAACUAUGACACGCAAAACGCGUGCUCUGUUGAAUGGAGUUUAUCAUG [C99G C132U] | -1.96 |
| GGAUCUUCUCGAUCUAACAAAAAAGACAAAUCUGCCACAAAGCUUGAGAGCAUCUUCGGAUGCAGAGGCGGCAGCCUUCGGUGGCGCGAUAGCGCCUACGUUCUCAACUAUGACACGCAAAACUCGUGCUCCGUUGAAUGGAGUUUAUGAUG [A97U G124U C149G] | -3.65 |
| GGAUCUUCUCGAUCUAACAAAAAAGACAAAUCUGCCACAAAGCUUGAGAGCAUCUUCGGAUGCAGAGGCGGCAGCCUUCGGUGGCGCGAUAGCGCCUACAUUCUCAACUAUGACACGCAAAACGCGUGCUCCGUUGAAUGGAGUUUAUCAUG [A97U G100A] | -4.1 |
| GGAUCUUCUCGAUCUAACAAAAAAGACAAAUCUGCCACAAAGCUUGAGAGCAUCUUCGGAUGCAGAGGCGGCAGCCUUCGGUGGCGCGAUAGCGCCAAGGUUCUCAAUUAUGACACGCAAAACGCGUGCUCCGUUGAAUGGAGUUUAUCAUG [C99G C108U] | -4.14 |
| GGAUCUUCUCGAUCUAACAAAAAAGACAAAUCUGCCACAAAGCUUGAGAGCAUCUUCGGAUGCAGAGGCGGCAGCCUUCGGUGGCGCGAUAGCGCCUACGUUCUCAACUAUGACACGCAAAACGCGUGCUCCGUUGAAUGUAGUUUAUCAUG [A97U G141U] | 0.189 |
| GGAUCUUCUCGAUCUAACAAAAAAGACAAAUCUGCCACAAAGCUUGAGAGCAUCUUCGGAUGCAGAGGCGGCAGCCUUCGGUGGCGCGAUAGCGCCAAUGUUCUCAACUAUGACACGCAAAACGCGUGCUCCGUUGAAUCGAGUUUAUCAUG [C99U G140C] | -3.43 |
| GGAUCUUCUCGAUCUAACAAAAAAGACAAAUCUGCCACAAAGCUUGAGAGCAUCUUCGGAUGCAGAGGCGGCAGCCUUCGGUGGCGCGAUAGCGCCAAUGUUCUCAACUAUGACACGCAAAACGCGUGCUCCGUUGAAUUGAGUUUAUCAUG [C99U G140U] | -3.37 |
| GGAUCUUCUCGAUCUAACAAAAAAGACAAAUCUGCCACAAAGCUUGAGAGCAUCUUCGGAUGCAGAGGCGGCAGCCUUCGGUGGCGCGAUAGCGCCUACGUUCUCAACUAUGACACGCAAAACGCGUGCUCCGUGGAAUCGAGUUUAUCAUG [A97U U135G G140C] | ≤ -4.2 |
| GGAUCUUCUCGAUCUAACAAAAAAGACAAAUCUGCCACAAAGCUUGAGAGCAUCUUCGGAUGCAGAGGCGGCAGCCUUCGGUGGCGCGAUAGCGCCAGCGUUCUCAACUAUGACACGCAAAACGCGUGCUCCGUUGAAUCGAGUUUAUCAUG [A98G G140C] | -3.59 |
| GGAUCUUCUCGAUCUAACAAAAAAGACAAAUCUGCCACAAAGCUUGAGAGCAUCUUCGGAUGCAGAGGCGGCAGCCUUCGGUGGCGCGAUAGCGCCAAAGUUCUCAACUAUGACACGCAAAACGCGUGCUCCGUUGAAUGGAGUUUAUCGUG [C99A A150G] | -3.11 |
| GGAUCUUCUCGAUCUAACAAAAAAGACAAAUCUGCCACAAAGCUUGAGAGCAUCUUCGGAUGCAGAGGCGGCAGCCUUCGGUGGCGCGAUAGCGCCAGGGUUCUCAACUAUGACACGCAAAUCGCGUGCUCCGUUGAAUGGAGUUUAUCAUG [A98G C99G A122U] | -1.25 |
| GGAUCUUCUCGAUCUAACAAAAAAGACAAAUCUGCCACAAAGCUUGAGAGCAUCUUCGGAUGCAGAGGCGGCAGCCUUCGGUGGCGCGAUAGCGCCAACAUUCUCAACUAUGACACGCAAAACGCGUGCUCCGUUUAAUGGUGUUUAUCAUG [G100A G136U A142U] | ≤ -4.2 |
| GGAUCUUCUCGAUCUAACAAAAAAGACAAAUCUGCCACAAAGCUUGAGAGCAUCUUCGGAUGCAGAGGCGGCAGCCUUCGGUGGCGCGAUAGCGCCAAAGUUCUCAACUAUGACACGCAAAAGGCGUGCUCCGUUGAAUGGAGUGUAUCAUG [C99A C123G U145G] | 0.0034 |
| GGAUCUUCUCGAUCUAACAAAAAAGACAAAUCUGCCACAAAGCUUGAGAGCAUCUUCGGAUGCAGAGGCGGCAGCCUUCGGUGGCGCGAUAGCGCCAGCGUUCUCAACUAUGACACGAAAAACGCGUGAUCCGUUGAAUGGAGUUUAUCAUG [A98G C118A C129A] | -2.75 |
| GGAUCUUCUCGAUCUAACAAAAAAGACAAAUCUGCCACAAAGCUUGAGAGCAUCUUCGGAUGCAGAGGCGGCAGCCUUCGGUGGCGCGAUAGCGCCAAUGUUCUCAACUAUGACACGCAAAACGUGUGCUCCGUUGAAUGGAGGUUAUCAUG [C99U C125U U144G] | -0.905 |
